This assay addresses M1-linked polyubiquitin chains (UniProt P0CG48). As to the kind of experiment: cell-based or functional assay.

For “trypsin-resistant tandem ubiquitin binding entity (TR-TUBE) (designed binder)”, the Ub-ProT assay: length of chain protected from trypsinization (ubiquitin molecules) is less than 16.

Values taken from patent US20150132779A1.
